Measurements taken from paper PMC3293039, “Highly stable meso-diaminopimelate dehydrogenase from an Ureibacillus thermosphaericus strain A1 isolated from a Japanese compost: purification, characterization and sequencing” (AMB Express, 2011).

Columns and labels:
purified protein [1] = substrate: N[C@H](CCC[C@H](N)C(=O)O)C(=O)O; assay: purified protein; format: biochemical, Ureibacillus thermosphaericus; conditions: oxidative deamination, NADP as co-substrate, carbonate-KOH pH 10.5, 50 °C
purified protein [2] = substrate: NC(=O)c1ccc[n+]([C@@H]2O[C@H](COP(=O)(O)OP(=O)(O)OC[C@H]3O[C@@H](n4cnc5c(N)ncnc54)[C@H](OP(=O)(O)O)[C@@H]3O)[C@@H](O)[C@H]2O)c1; assay: purified protein; format: biochemical, Ureibacillus thermosphaericus; conditions: oxidative deamination, meso-DAP as co-substrate, carbonate-KOH pH 10.5, 50 °C, varied: cofactor

B1: meso-DAPDH (meso-diaminopimelate dehydrogenase) (Ureibacillus thermosphaericus) (protein)
chain: SKIRIGIVGYGNLGRGVEAAIQQNPDMELVAVFTRRDPKTVAVKSNVKVLHVDDAQSYKDEIDVMILCGGSATDLPEQGPYFAQYFNTIDSFDTHARIPDYFDAVNAAAEQSGKVAIISVGWDPGLFSLNRLLGEVVLPVGNTYTFWGKGVSQGHSDAIRRIQGVKNAVQYTIPIDEAVNRVRSGENPELSTREKHARECFVVLEEGADPAKVEHEIKTMPNYFDEYDTTVHFISEEELKQNHSGMPHGGFVIRSGKSDEGHKQIIEFSLNLESNPMFTSSALVAYARAAYRLSQNGDKGAKTVFDIPFGLLSPKSPEDLRKELL
notes: native, purified from U. thermosphaericus A1 cells; gene encodes 326 residues; homodimer about 80 kDa, subunit about 40 kDa; N-terminus SKIRIGIVGY (initiator Met removed)
Which results are given for B1?
Km (purified protein [1]): 1600 µM; Km (purified protein [2]): 130 µM
